Source: patent US7090848

Tests used:
Experiment in all cases: cell-based or functional assay
CCR1 = CCR1 (UniProt P32246)
CCR3 = CCR3 (UniProt P51677)
CCR4 = CCR4 (UniProt P51679)
CCR5 = CCR5 (UniProt P51681)
CXCR4 = CXCR4 (UniProt P61073)
UniProt P61073, sequence (P61073 whole entry): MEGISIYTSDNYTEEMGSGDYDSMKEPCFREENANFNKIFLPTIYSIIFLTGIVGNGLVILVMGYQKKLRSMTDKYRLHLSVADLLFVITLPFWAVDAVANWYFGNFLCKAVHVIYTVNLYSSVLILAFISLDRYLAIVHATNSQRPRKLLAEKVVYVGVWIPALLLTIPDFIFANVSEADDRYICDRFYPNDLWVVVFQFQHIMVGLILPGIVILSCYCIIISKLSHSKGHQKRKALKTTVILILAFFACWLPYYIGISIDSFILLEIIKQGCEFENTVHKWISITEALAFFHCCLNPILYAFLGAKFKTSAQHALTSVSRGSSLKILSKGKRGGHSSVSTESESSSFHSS

UniProt P51677, sequence (P51677 whole entry): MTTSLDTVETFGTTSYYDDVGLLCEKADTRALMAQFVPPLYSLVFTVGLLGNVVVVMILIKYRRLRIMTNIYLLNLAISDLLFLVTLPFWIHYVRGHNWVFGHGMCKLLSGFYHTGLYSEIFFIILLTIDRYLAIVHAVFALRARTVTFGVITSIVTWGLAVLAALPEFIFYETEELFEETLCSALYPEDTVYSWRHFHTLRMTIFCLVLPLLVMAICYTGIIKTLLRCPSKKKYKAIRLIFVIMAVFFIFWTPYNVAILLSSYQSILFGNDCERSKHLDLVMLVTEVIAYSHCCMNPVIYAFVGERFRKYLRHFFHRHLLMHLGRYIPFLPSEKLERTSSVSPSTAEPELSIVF
UniProt P32246, sequence (P32246 whole entry): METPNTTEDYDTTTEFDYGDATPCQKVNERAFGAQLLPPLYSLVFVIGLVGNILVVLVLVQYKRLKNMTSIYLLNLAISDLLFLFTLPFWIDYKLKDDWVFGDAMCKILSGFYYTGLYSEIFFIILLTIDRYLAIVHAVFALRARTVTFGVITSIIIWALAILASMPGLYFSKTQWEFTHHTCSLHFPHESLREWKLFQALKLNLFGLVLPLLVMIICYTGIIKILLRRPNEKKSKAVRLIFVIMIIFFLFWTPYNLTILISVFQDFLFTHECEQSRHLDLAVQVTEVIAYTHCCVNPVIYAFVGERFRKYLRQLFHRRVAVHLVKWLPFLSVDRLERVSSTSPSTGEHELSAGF
UniProt P51679, sequence (P51679 whole entry): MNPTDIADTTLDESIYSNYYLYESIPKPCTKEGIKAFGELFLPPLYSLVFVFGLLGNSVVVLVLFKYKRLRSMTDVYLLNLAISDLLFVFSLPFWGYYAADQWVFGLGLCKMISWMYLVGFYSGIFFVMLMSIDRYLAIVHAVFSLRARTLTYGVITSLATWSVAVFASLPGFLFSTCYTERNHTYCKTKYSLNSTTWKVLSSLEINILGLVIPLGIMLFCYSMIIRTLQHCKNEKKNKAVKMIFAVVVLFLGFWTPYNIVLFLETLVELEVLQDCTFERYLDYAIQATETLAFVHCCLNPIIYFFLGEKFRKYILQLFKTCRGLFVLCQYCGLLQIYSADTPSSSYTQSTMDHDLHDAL
UniProt P51681, sequence (P51681 whole entry): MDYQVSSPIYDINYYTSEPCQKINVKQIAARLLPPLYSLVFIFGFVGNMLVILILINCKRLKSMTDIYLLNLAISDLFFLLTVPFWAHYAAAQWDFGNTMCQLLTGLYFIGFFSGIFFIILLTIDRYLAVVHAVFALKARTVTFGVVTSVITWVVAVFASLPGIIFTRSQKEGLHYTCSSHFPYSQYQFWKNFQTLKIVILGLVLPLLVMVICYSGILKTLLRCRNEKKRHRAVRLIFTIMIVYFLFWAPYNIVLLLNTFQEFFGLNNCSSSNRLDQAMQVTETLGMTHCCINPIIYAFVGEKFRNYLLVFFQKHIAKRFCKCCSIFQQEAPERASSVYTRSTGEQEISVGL

Row | Substance | Infectivity Titer In HOS-CD4 Cells Expressing CCR1 (CCR1) | Infectivity Titer In HOS-CD4 Cells Expressing CCR3 (CCR3) | Infectivity Titer In HOS-CD4 Cells Expressing CCR4 (CCR4) | Infectivity Titer In HOS-CD4 Cells Expressing CCR5 (CCR5) | Infectivity Titer In HOS-CD4 Cells Expressing CXCR4 (CXCR4)
1 | HIV-1 AD8 envelope | < 4 titer (1:x) | < 4 titer (1:x) | < 4 titer (1:x) | 256 titer (1:x) | < 4 titer (1:x)
2 | HIV-1 NL4-3 envelope | < 4 titer (1:x) | < 4 titer (1:x) | < 4 titer (1:x) | 32 titer (1:x) | > 256 titer (1:x)
